Assay results as given in patent US20160257942, “MODIFIED HELICASES” (Oxford Nanopore Technologies Ltd., published 2016).

Target: T1, T4 Dda E94C/A360C (Enterobacteria phage T4, UniProt P32270 SEQ:1-439, E94C/A360C/(ΔM1)G1G2)
T1 sequence: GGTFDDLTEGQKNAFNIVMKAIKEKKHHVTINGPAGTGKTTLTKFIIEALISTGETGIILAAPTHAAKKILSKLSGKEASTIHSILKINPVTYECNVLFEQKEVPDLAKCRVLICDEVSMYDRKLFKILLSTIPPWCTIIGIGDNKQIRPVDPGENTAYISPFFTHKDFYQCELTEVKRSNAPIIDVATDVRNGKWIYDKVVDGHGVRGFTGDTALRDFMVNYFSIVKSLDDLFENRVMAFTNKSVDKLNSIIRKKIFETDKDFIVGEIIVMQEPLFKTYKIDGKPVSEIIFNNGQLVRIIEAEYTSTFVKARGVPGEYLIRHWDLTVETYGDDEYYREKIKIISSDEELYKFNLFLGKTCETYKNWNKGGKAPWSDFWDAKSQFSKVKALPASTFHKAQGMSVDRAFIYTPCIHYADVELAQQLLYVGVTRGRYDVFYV
Test: FP; 25 mM potassium phosphate, 151.5 mM KCl, pH 8.0, 10 mM MgCl2, 25 C, 60 min; exact value only in figure
Settings: label: FAM on thymine 37
Procedure: Two custom fluorescent substrates were used to assess the ability of T4 Dda—E94C/A360C helicase to bind to linear (SEQ ID NO: 64) and circular (SEQ ID NO: 65) single-stranded DNA. […] As the helicase bound to either fluorescent substrate in a buffered solution (25 mM potassium phosphate, 151.5 mM KCl, pH8.0, 10 mM MgCl₂), the fluorescence anisotropy (a property relating to the speed of tumbling of the DNA substrate in solution) increased. The lower the amount of helicase needed to effect an increase in anisotropy, the tighter the binding affinity between the DNA and helicase (FIG. 3).
T4 Dda—E94C/A360C was buffer exchanged into the binding buffer (25 mM potassium phosphate, 151.5 mM KCl, pH8.0, 10 mM MgCl₂) and then serially diluted over a concentration range of 0.02 nM to 750 nM. Each sample concentration was then mixed with linear or circular single-stranded DNA (1 nM of SEQ ID NO: 64 or 65) giving a final concentration range of T4 Dda—E94C/A360C of 0.01 nM to 375 nM and the fluorescence anisotropy assessed over the course of 60 min at 25° C.

TTTTTTTTTTTTTTTTTTTTTTTTTTTTTTTTTTTTTTTTTTTT (ssDNA) [44 nt linear ssDNA]
Kd: < 15 nM
